Measurements from PMC8103107 (2021).

B1: vascular endothelial growth factor A (ligand)
chain: APMAEGGGQNHHEVVKFMDVYQRSYCHPIETLVDIFQEYPDEIEYIFKPSCVPLMRCGGCCNDEGLECVPTEESNITMQIMRIKPHQGQHIGEMSFLQHNKCECRPKKDRARQENPCGPCSERRKHLFVQDPQTCKCSCKNTDSRCKARQLELNERTCRCDKPRR
modifications: Assumed to be VEGF165, the customary recombinant product, because the isoform is not printed. Mature residues 1-165 equal entry residues 207-395 with the exon 6a region 321-345 replaced by the splice-junction Asn. K321N is this natural splice residue, not an engineered mutation. Disulfide-linked antiparallel homodimer.
B2: Semaphorin 3A (ligand)
chain: NYQNGKNNVPRLKLSYKEMLESNNVITFNGLANSSSYHTFLLDEERSRLYVGAKDHIFSFDLVNIKDFQKIVWPVSYTRRDECKWAGKDILKECANFIKVLKAYNQTHLYACGTGAFHPICTYIEIGHHPEDNIFKLENSHFENGRGKSPYDPKLLTASLLIDGELYSGTAADFMGRDFAIFRTLGHHHPIRTEQHDSRWLNDPKFISAHLISESDNPEDDKVYFFFRENAIDGEHSGKATHARIGQICKNDFGGHRSLVNKWTTFLKARLICSVPGPNGIDTHFDELQDVFLMNFKDPKNPVVYGVFTTSSNIFKGSAVCMYSMSDVRRVFLGPYAHRDGPNYQWVPYQGRVPYPRPGTCPSKTFGGFDSTKDLPDDVITFARSHPAMYNPVFPMNNRPIVIKTDVNYQFTQIVVDRVDAEDGQYDVMFIGTDVGTVLKVVSIPKETWYDLEEVLLEEMTVFREPTAISAMELSTKQQQLYIGSTAGVAQLPLHRCDIYGKACAECCLARDPYCAWDGSACSRYFPTAKRRTRRQDIRNGDPLTHCSDLHHDNHHGHSPEERIIYGVENSSTFLECSPKSQRALVYWQFQRRNEERKEEIRVDDHIIRTDQGLLLRSLQQKDSGNYLCHAVEHGFIQTLLKVTLEVIDTEHLEELLHKDDDGDGSKTKEMSNSMTPSQKVWYRDFMQLINHPNLNTMDEFCEQVWKRDRKQRRQRPGHTPGNSNKWKHLQENKKGRNRRTHEFERAPRSV

Target: recombinant NRP1-derived trap consisting of the extracellular domain of NRP1 (UniProt O14786 22-856)
Experiment: SPR

Chain of recombinant NRP1-derived trap consisting of the extracellular domain of NRP1 (O14786 22-856): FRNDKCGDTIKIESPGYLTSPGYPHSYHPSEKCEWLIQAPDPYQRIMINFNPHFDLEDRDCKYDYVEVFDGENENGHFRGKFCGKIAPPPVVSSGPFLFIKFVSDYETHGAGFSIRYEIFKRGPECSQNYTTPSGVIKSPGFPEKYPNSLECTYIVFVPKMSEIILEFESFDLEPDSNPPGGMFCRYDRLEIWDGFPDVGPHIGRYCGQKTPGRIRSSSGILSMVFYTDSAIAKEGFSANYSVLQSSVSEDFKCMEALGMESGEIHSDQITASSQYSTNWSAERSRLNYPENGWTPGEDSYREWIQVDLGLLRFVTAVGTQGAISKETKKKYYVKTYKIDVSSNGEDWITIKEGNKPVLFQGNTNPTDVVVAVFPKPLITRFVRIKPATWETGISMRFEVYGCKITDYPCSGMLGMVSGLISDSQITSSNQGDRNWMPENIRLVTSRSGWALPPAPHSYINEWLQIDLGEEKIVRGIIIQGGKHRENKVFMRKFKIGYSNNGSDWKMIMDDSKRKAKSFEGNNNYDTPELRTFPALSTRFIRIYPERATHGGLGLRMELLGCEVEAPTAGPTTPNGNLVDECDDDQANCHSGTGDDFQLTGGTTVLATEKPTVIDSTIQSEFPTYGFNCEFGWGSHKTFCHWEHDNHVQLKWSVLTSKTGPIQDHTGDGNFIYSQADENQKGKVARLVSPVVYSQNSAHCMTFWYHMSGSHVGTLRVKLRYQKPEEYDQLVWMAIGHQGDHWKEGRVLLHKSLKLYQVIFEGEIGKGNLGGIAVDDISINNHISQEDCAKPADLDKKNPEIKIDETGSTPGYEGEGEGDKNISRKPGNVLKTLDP

Binder	koff [s⁻¹]
B1	0.0012
B2	0.000155
